*1 amine or outer side, *2 acyl side, *3 side chain or, on linkers, in order; H or OH if unused. Bridges are numbered along the chain shown (N, C = ends). Where no end group is shown, it is not given here. [ ]: non-standard residue; d: D form. TATA = O=C(CC[*:1])N1CN(C(=O)CC[*:2])CN(C(=O)CC[*:3])C1; HGln = homoglutamine, NC(=O)CCC[C@H](N[*:1])C(=O)[*:2]; Trp(5-F) = N[C@@H](Cc1c[nH]c2ccc(F)cc12)C(=O)O; 1Nal = N[C@@H](Cc1cccc2ccccc12)C(=O)O; 2Nal = N[C@@H](Cc1ccc2ccccc2c1)C(=O)O; Gly(cPent) = N[C@H](C(=O)O)C1CCCC1; Ala(cPr) = N[C@@H](CC1CC1)C(=O)O; Hyp = O=C(O)[C@@H]1C[C@@H](O)CN1; NMeT = CN[C@H](C(=O)O)[C@@H](C)O; hArg = N=C(N)NCCCC[C@H](N)C(=O)O; NMeC = CN[C@@H](CS)C(=O)O; hSer = N[C@@H](CCO)C(=O)O; Aib = CC(C)(N)C(=O)O; βAla = NCCC(=O)O; Sar = CNCC(=O)O

To fix the notation:
T1: human Nectin-4 (human, UniProt Q96NY8 32-349)
T1 construct: a Gly32-Ser349 FLAG construct is described only under the SPR assay; also called PVRL4
T1 sequence (looked up): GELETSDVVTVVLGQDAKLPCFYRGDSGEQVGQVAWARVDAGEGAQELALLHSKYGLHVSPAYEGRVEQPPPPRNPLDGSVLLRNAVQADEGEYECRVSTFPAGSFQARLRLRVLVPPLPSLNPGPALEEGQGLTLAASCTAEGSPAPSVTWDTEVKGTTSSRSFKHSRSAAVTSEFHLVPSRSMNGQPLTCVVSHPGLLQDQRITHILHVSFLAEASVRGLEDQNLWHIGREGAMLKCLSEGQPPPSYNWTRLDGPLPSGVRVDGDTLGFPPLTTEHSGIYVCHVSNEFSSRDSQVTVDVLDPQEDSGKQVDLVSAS

For this experiment, the target named is T1, human Nectin-4. Kind of experiment: FP competition, tracer SEQ ID NO 217. The procedure:
Peptides were diluted to an appropriate concentration in assay buffer as described in the direct binding assay with a maximum of 5% DMSO, then serially diluted 1 in 2. […] Measurements were conducted as for the direct binding assay, however the gain was determined prior to the first measurement. Data analysis was in Systat Sigmaplot version 12.0 where the mP values were fit to a user defined cubic equation to generate a Ki value: […]
As for Ac-QK[2Nal]CAPLSDYWCNRIC (linker 4-12-16 via TATA) [BCY7997], the inhibitory constant (Ki) came to 22 nM.
As for Ac-QKWCAPLSDY[1Nal]CNRIC (linker 4-12-16 via TATA) [BCY7998], the figure is 135 nM; as for Ac-QKWCAPLSDYWC[dD]RIC (linker 4-12-16 via TATA) [BCY8000], 60 nM.
{Ac-βAla}-[Sar][Sar][Sar][Sar][Sar]CP[1Nal][dD]CM[hArg]DWSTP[Hyp]WC (linker 6-10-20 via TATA) [BCY8122] came in with a Ki of 3 nM.
As for Ac-CP[1Nal][dD]CM[hArg]DWTTP[Hyp]WC (linker 1-5-15 via TATA) [BCY8176], the figure is 3.5 nM; as for Ac-CP[1Nal][dD]CM[hArg]DWDTP[Hyp]WC (linker 1-5-15 via TATA) [BCY8174], 12.3 nM.
The value for Ac-CP[1Nal][dR]CM[hArg]DWDTP[Hyp]WC (linker 1-5-15 via TATA) [BCY8185] was 26.1 nM; that for Ac-CP[1Nal][dD]CM[hArg]HWSTP[Hyp]WC (linker 1-5-15 via TATA) [BCY8125] was 3.1 nM; that for Ac-CP[1Nal][dD]CM[hArg]NWSTP[Hyp]WC (linker 1-5-15 via TATA) [BCY8124] was 3.5 nM.
As for Ac-CP[1Nal][dR]CL[hArg]HWSTP[Hyp]WC (linker 1-5-15 via TATA) [BCY8214], the figure is 6.3 nM; as for {Ac-βAla}-[Sar][Sar][Sar][Sar][Sar]CP[1Nal][dD]CM[hArg]HWSTP[Hyp]WC (linker 6-10-20 via TATA) [BCY8121], 4 nM.
Take Ac-CP[1Nal][dD]CM[hArg]DWSSP[Hyp]WC (linker 1-5-15 via TATA) [BCY8180]: the Ki amounted to 3 nM.
{Ac-βAla}-[Sar][Sar][Sar][Sar][Sar]CP[1Nal][dD]CM[hArg]NWSTP[Hyp]WC (linker 6-10-20 via TATA) [BCY8120] registered an inhibitory constant (Ki) of 3 nM. This counts as single-digit nanomolar.
Regarding Ac-CP[1Nal][dD]CL[hArg]DWSTP[Hyp]WC (linker 1-5-15 via TATA) [BCY8212], the inhibitory constant (Ki) was 3 nM. In other words, the single-digit nanomolar range.
Ac-CP[1Nal][dR]CM[hArg]DWTTP[Hyp]WC (linker 1-5-15 via TATA) [BCY8187] returned a Ki of 5 nM.
The value for Ac-CP[1Nal][dR]CM[hArg]DWSSP[Hyp]WC (linker 1-5-15 via TATA) [BCY8191] was 4.5 nM; that for Ac-CP[1Nal][dR]CM[hArg]HWSTP[Hyp]WC (linker 1-5-15 via TATA) [BCY8129] was 3.1 nM; that for Ac-CP[1Nal][dR]CM[hArg]NWSTP[Hyp]WC (linker 1-5-15 via TATA) [BCY8128] was 2.2 nM.
As for Ac-CP[1Nal][dR]CL[hArg]DWSTP[Hyp]WC (linker 1-5-15 via TATA) [BCY8213], the inhibitory constant (Ki) came to 3.5 nM.
As for DDWCAPLDDYWCGRICA (linker 4-12-16 via TATA, also called 80-10-11-T01) [BCY433], the figure is 69.4 nM; as for Ac-CAPLSDYWCNRIC (linker 1-9-13 via TATA) [BCY8044], 170 nM; as for Ac-CPF[dE]CM[hArg]NWSTPIWC (linker 1-5-15 via TATA) [BCY7903], 41 nM.
For Ac-CPF[dS]CM[hArg]NWSTPIWC (linker 1-5-15 via TATA) [BCY7907], the Ki came to 10 nM.
In the case of Ac-CPF[dD]CM[hArg]NWSTP[Ala(cPr)]WC (linker 1-5-15 via TATA) [BCY7912], the inhibitory constant (Ki) was found to be 9 nM.
DTACPFGCMRGWSWPIWCA (linker 4-8-18 via TATA) [BCY3388] had an inhibition constant (Ki) of 129 nM. This Ki lies about 14-fold higher than the previous one.
As for DDACPFGCMETWSWPIWCA (linker 4-8-18 via TATA) [BCY3386], the figure is 80.2 nM.
Regarding Ac-CP[1Nal][dD]CM[hArg]NWSTPIWC (linker 1-5-15 via TATA) [BCY8030], affinity was put at a Ki of 2.5 nM.
Ac-CPF[dD]CM[hArg]N[Trp(5-F)]STPIWC (linker 1-5-15 via TATA) [BCY7891]: the affinity, expressed as Ki, was 5 nM.
The molecule Ac-CPF[dD]C[Gly(cPent)][hArg]NWSTPIWC (linker 1-5-15 via TATA) [BCY7915] came in with a Ki of 20 nM.
Molecule Ac-CPF[dD][NMeC]M[hArg]NWSTPIWC (linker 1-5-15 via TATA) [BCY7973] came in with an inhibition constant Ki of 4 nM.
Ac-DDDCPF[dD]CM[hArg]NWSTPIWC (linker 4-8-18 via TATA) [BCY8028] showed a Ki of 61.9 nM.
The value for Ac-CPF[dK](MeO‑dPEG12)CM[hArg]NWSTPIWC (linker 1-5-15 via TATA) [BCY8089] was 8 nM; that for Ac-CPF[dQ]CM[hArg]NWSTPIWC (linker 1-5-15 via TATA) [BCY7904] was 8 nM; that for Ac-CPF[dF]CM[hArg]NWSTPIWC (linker 1-5-15 via TATA) [BCY7902] was 4 nM.
The value for SDNCPFGCMKDWSWPIWCA (linker 4-8-18 via TATA) [BCY3387] was 234 nM; that for Ac-C[Aib]F[dD]CM[hArg]NWSTPIWC (linker 1-5-15 via TATA) [BCY8041] was 39.1 nM; that for Ac-CPF[dL]CM[hArg]NWSTPIWC (linker 1-5-15 via TATA) [BCY7906] was 6 nM.
The value for Ac-CPF[dD]CM[hArg]NWSTPI[Trp(5-F)]C (linker 1-5-15 via TATA) [BCY7892] was 9.5 nM; that for Ac-CPF[dD]C[HGln][hArg]NWSTPIWC (linker 1-5-15 via TATA) [BCY7914] was 62 nM; that for DSECPFGCMSGWSWPIWCA (linker 4-8-18 via TATA) [BCY3389] was 99.8 nM.
Take Ac-CPF[dD]C[hArg]NWS[NMeT]PIWC (linker 1-5-14 via TATA) [BCY7979]: the Ki came out at 191 nM.
As for Ac-CPF[dD]CM[hArg]NWSTP[Hyp]WC (linker 1-5-15 via TATA) [BCY8037], the figure is 5.6 nM; as for Ac-CPF[dD]CM[hArg]NW[hSer]TPIWC (linker 1-5-15 via TATA) [BCY7908], 20 nM.
As for Ac-QK[1Nal]CAPLSDYWCNRIC (linker 4-12-16 via TATA) [BCY7996], the figure is 21 nM.
As for Ac-CP[2Nal][dD]CM[hArg]NWSTPIWC (linker 1-5-15 via TATA) [BCY8031], the figure is 3.6 nM.

The Ki is the dissociation constant of the complex between target and ligand, obtained from inhibition or displacement.

The record behind these values is US20210269480A1 (published 2021).
